Experiment [1] concerns the target T1, hGUCY2C ECD-His (human, UniProt P25092 24-430).
T1 construct: also called human GUCY2C protein
Put plainly: SPR Biacore, antibody captured. The source says:
To test the affinity of the GUCY2C monoclonal antibodies of the present disclosure for GUCY2C, in this test example, the instruments Biacore 8K and Biacore T200 were used to detect the ability of the antibodies to bind to hGUCY2C-ECD-His (SEQ ID NO: 3). The specific method is as follows: The antibody was affinity-captured using a Protein A biosensor chip conjugated with an anti-human antibody, then a solution containing GUCY2C Protein flowed on the surface of the chip, and reaction signals were detected in real time with an instrument to obtain association and dissociation curves. After dissociation was completed for each cycle, the biosensor chip was washed with 10 mM glycine-hydrochloric acid (pH 1.5) for regeneration. Data fitting was performed using a 1:1 model.

In experiment [2] the target is T2, Human GUCY2C protein on cells (HCT116/hGUCY2C, HT-55, T84, LS1034, LS174T) (human, UniProt P25092 24-1073).
T2 construct: also called GUCY2C on the cell surface
The experiment in a line: flow cytometry on HCT116/hGUCY2C cells, PE anti-human IgG Fc secondary antibody. In general terms: A flow cytometer gives signals particle by particle.

Experiment [3] addresses T1, hGUCY2C ECD-His. The experiment in a line: competition ELISA, row antibody coated; competitor 1608-biotinylated. (In general: In an ELISA, binding on a coated surface is turned into a signal by an enzyme label.)
Experiment [4] has as its target T1, hGUCY2C ECD-His. The experiment in a line: competition ELISA, row antibody coated; competitor 81 L3H1-biotinylated.
In experiment [5] the target is T1, hGUCY2C ECD-His. Put plainly: competition ELISA, row antibody coated; competitor 146 L1H1-biotinylated.
Experiment [6] has as its target T1, hGUCY2C ECD-His. The experiment in a line: competition ELISA, row antibody coated; competitor P3-C7 L7H1-biotinylated.
Experiment [7] addresses T2, Human GUCY2C protein on cells …. Put plainly: flow cytometry on HCT116/hGUCY2C cells, PE anti-human IgG Fc secondary antibody. The source holds these as a separate data set.
For experiment [8] the target is unchanged. Described as above. The source holds these as a separate data set.
For experiment [9] the target is unchanged. The experiment in a line: flow cytometry on T84 cells, PE anti-human IgG Fc secondary antibody.

The values that follow come from patent US20260028421A1 (JIANGSU HENGRUI PHARMACEUTICALS, published 2026).

B1: P3-F6 CHI (antibody, human IgG1, kappa, V domains shown)
VH: EVQLQQSGPELVKPGASVKISCKASGYTFTDYYMNWVKQSHGKSLEWIGDINPNNGGTSYNQKFKGKATLTVDKSSSTAYMELRSLTSEDSAVYYCARKTWLPYASVYWGQGTSVTVSS
VL: DVVMTQTPLSLPVSLGDQASISCRSSQSLVHSNGNTYLHWYLQKPGQSPKLLIYKVSNRFSGVPDRFSGSGSGTDFTLKISRVEAEDLGVYFCSQSTHVPPYTFGGGTKLEIKR
notes: chimeric
By Kd is commonly meant the free concentration of one partner at which half of the binding sites on the other are occupied at equilibrium, for simple one-to-one binding. Read a low Kd as higher affinity. As usually defined, the koff is a measure of how fast the partners let go of each other. Higher therefore signals fast dissociation. Broadly, the kon is a measure of how fast the partners come together. One may read the EC50 (read off the curve) as the concentration needed to bring the measured effect to its halfway point. Read a high EC50 (read off the curve) as a need for much substance. In the experiment with hGUCY2C ECD-His [1], B1 registered a Kd of 37 nM, an off-rate (koff) of 0.000245 s⁻¹ and a kon of 6610 M⁻¹ s⁻¹. Further, the “EC50 (read off the curve)” value in experiment [2] is approximately 2 nM.

B2: 146 L1H1 (antibody, human IgG1, kappa, V domains shown)
VH: EFQLVQSGAEVKKPGASVKVSCKASGYSFTDYNMNWVRQAPGQRLEWMGLINPKYGTTNYNQKFKGRVTLTVDQSSSTAYMELSSLRSEDTAVYYCARDNYPAWFAYWGQGTTVTVSS
VL: EIVLTQSPATLSLSPGERATLSCSASSSLNYMYWYQQKPGSSPRPWIYRTSQLASGVPARFSGSGSGTDYTLTISSLEPEDFAVYYCQQYHSYPPTFGGGTKVEIKR
notes: humanized, human IgG1/kappa
In the experiment with hGUCY2C ECD-His [1], B2 showed a Kd of 0.92 nM. Further, in the experiment with hGUCY2C ECD-His [1], the koff came to 0.000117 s⁻¹. This molecule also registered an association rate constant (kon) with hGUCY2C ECD-His [1] of 127000 M⁻¹ s⁻¹. In addition, the relative competition coefficient in the experiment with hGUCY2C ECD-His [3] stood at 12; in the experiment with hGUCY2C ECD-His [4] it was 99; with hGUCY2C ECD-His [5], 100; with hGUCY2C ECD-His [6] it was 4. Further, in experiment [7], the “EC50 (read off the curve)” value is approximately 2 nM.

B3: 81 L3H1 (antibody, human IgG1, kappa, V domains shown)
VH: EVQLVQSGAEVKKPGASVKVSCKASGYTFTDHNMNWVKQAPGQRLEWMGVMNPKFGTINYNQKFKDKATITRDTSASTAYMELSSLRSEDTAVYYCARDNYPNYFDYWGQGTTVTVSS
VL: DIQLTQSPSFLSASPGDRVTITCSASSSVNYMYWYQQKPGSSPKSWIYRTSNLASGVPSRFSGSGSGTEYTLTISSLQPEDFATYYCQQYHDYPPTFGGGTKVEIKR
notes: humanized, human IgG1/kappa
Consider B3, for which the Kd in the experiment with hGUCY2C ECD-His [1] amounted to 0.29 nM. Moreover, in the experiment with hGUCY2C ECD-His [1], the dissociation rate constant (koff) worked out at 5.19e-05 s⁻¹. In the experiment with hGUCY2C ECD-His [1], this molecule returned an on-rate (kon) of 181000 M⁻¹ s⁻¹. The relative competition coefficient in the experiment with hGUCY2C ECD-His [3] came to 11; with hGUCY2C ECD-His [4] it was 100; with hGUCY2C ECD-His [5], 81; with hGUCY2C ECD-His [6], 3. The concentration for a half-maximal effect (EC50 (read off the curve)) in experiment [7] was approximately 1 nM.

B4: P1-D9 CHI (antibody, human IgG1, kappa, V domains shown)
VH: EVQLVESGGGLVKPGGSLKLSCAASGFSFSDYGMHWVRQAPEKGLEWIAHISSGSSTIYYADTVKGRFTISRDNAKNTLFLQMTSLRSEDTAMYYCARSRNYYGSRIFDYWGQGTTLTVSS
VL: QIVLTQSPARMSASPGEKVTMTCSASSSVSYMYWYQQKPRSSPKPWIYLTSNLASGVPARFSGSGSGTSYSLTISSMEAEDAATYYCQQWSSNPPTFGSGTKLEIKR
notes: chimeric
In the experiment with hGUCY2C ECD-His [1], B4 displayed a dissociation constant Kd of 19.6 nM, a koff of 0.000399 s⁻¹ and a kon of 20300 M⁻¹ s⁻¹. Also, the “EC50 (read off the curve)” value in experiment [8] is approximately 0.7 nM.

B5: P3-B4 CHI (antibody, human IgG1, kappa, V domains shown)
VH: QIQLVQSGPELKKPGEIVKISCKASGYTFTTYGMSWVKQAPGKGLKWMGWINTYSGVPTYADDFKGRFAFSLETSASTAYLQINNLKNEDTATYFCARRAGSSLYYYAMDYWGQGTSVTVSS
VL: QIVLTQSPAIMSASPGEKVTMTCSASSSVSYMLWYQQKSGTSPKRWIYDTSKLASGVPARFSGSGSGTSYSLTISSMEAEDAATYYCQQWSSNPPTFGGGTKLEIKR
notes: chimeric
In the experiment with hGUCY2C ECD-His [1], B5 showed a Kd of 8.28 nM, a koff of 0.000214 s⁻¹ and a kon of 25800 M⁻¹ s⁻¹. Further, in experiment [2], the “EC50 (read off the curve)” value is approximately 2 nM.

B6: P3-D9 CHI (antibody, human IgG1, kappa, V domains shown)
VH: EVQLVESGGGLVKPGGSLKLSCAASGFAFSDYGMHWVRQAPEKGLEWVAHISSGSSTIYYGDTVKGRFTISRDNAKNTLFLQMTSLRSEDTAMYYCTRSRNYYGSRVFDYWGQGTTLTVSS
VL: QIVLTQSPALMSVSPGEKVTMTCSASSSVSYMYWYQQKPRSSPKPWIYLTSSLASGVPARFSGSGSGTSYSLTINNVEAEDAATYYCQQWSSNPPTFGSGTKVEIKR
notes: chimeric
As for B6, in the experiment with hGUCY2C ECD-His [1], the Kd amounted to 26.5 nM, the koff turned out to be 0.000504 s⁻¹ and the on-rate constant (kon) was determined as 19000 M⁻¹ s⁻¹. Also, the “EC50 (read off the curve)” value in experiment [2] is approximately 1 nM.

B7: M42 CHI (antibody, human IgG1, kappa, V domains shown)
VH: QIQLKQSGPGLVQPSQSLSITCTVSGFSLTSYAVHWVRQSPGKGLEWLGVIWTGGNTRSNAAFMSRLTITKDNSKSQVFFKMNSLQADDTAIYFCAKNSLLDYAMDYWGQGTSVTVSS
VL: ENVLTQSPVIMSASPGEKVTMTCRASSFVGSGYLHWYQQKSGASPKLWIYSTSKLASGVPARFSGSGSGTSFFLTISRVEIEDAAAYYCQQSSGYPLTFGGGSKLEIKR
notes: chimeric
Regarding B7, in the experiment with hGUCY2C ECD-His [1], the Kd is 8.99 nM, the koff is 0.000335 s⁻¹ and the kon amounted to 37300 M⁻¹ s⁻¹. The concentration for a half-maximal effect (EC50 (read off the curve)) in [9] is approximately 0.5 nM.

B8: P3-C7 L7H1 (antibody, human IgG1, kappa, V domains shown)
VH: EVQLVQSGAEVKKPGASVKVSCKASGYTFTDHYIHWVRQAPGQGLEWMGVINPYNDGATYNQKFKGRVTMTVDKSTSTVYMELSSLRSEDTAVYYCARPPRAYGNYAGYWGQGTTVTVSS
VL: DVVMTQTPLSLPVTPGEPASISCRSSQSLVHSNQNTYLHWYLQKPGQSPQLLIYKVSNRFSGVPDRFSGSGSRTDFTLKISRVEAEDVGVYYCSQSTHVPYTFGGGTKVEIKR
notes: humanized, human IgG1/kappa
B8 registered a Kd with hGUCY2C ECD-His [1] of 7.77 nM. The molecule further yielded a koff with hGUCY2C ECD-His [1] of 0.000186 s⁻¹. For the same molecule, in the experiment with hGUCY2C ECD-His [1], the on-rate constant (kon) came out at 23900 M⁻¹ s⁻¹. Further, the relative competition coefficient was 10 with hGUCY2C ECD-His [3], 6 with hGUCY2C ECD-His [4], 13 with hGUCY2C ECD-His [5] and 100 with hGUCY2C ECD-His [6]. Also, the half-maximal effective concentration (EC50 (read off the curve)) in experiment [7] was approximately 2 nM.

B9: 1608 (antibody, human IgG1, kappa, V domains shown)
VH: EVQLVESGGGLVQPGGSLRLSCAASGFTFSSYWMHWVRQAPGKGLEWIGEIKPSNELTNVHEKFKDRFTISVDKAKNSAYLQMNSLRAEDTAVYYCTRTITTTEGYWFFDVWGQGTLVTVSS
VL: DIQLTQSPSSLSASVGDRVTITCRASESVDYYGSSLLQWYQQKPGKAPKLLIYAASKLASGVPSRFSGSGSGTDFTLTISSLQPEDFATYYCQQTRKAYTFGQGTKLEIKR
Consider B9, for which the relative competition coefficient in the experiment with hGUCY2C ECD-His [3] was 100; with hGUCY2C ECD-His [4] it was 6; with hGUCY2C ECD-His [5], 12; with hGUCY2C ECD-His [6], 3. The half-maximal effective concentration (EC50 (read off the curve)) in experiment [7], in experiment [8] and in experiment [2] was approximately 0.3 nM each time.

B10: M61 CHI (antibody, human IgG1, kappa, V domains shown)
VH: EVQLQQSGPELVRPGASVKISCTASGYTITDYYMSWVKQSHGKSPEWIGDINPNNGGTSDNQKFKGKATLTVDKSSSTAYMEYRSLTSEDSAVYYCARGRGMVARYFDIWGTGTTVTVSS
VL: EILLTQSPTTMAASPGEKITITCSASSSISSNFLHWYQEKPGFSPKLLIYRTSNLASGVPARFSGSGSGTSYSLTIGSMEAEDVATYYCQQGSGLPLTFGAGTKLELKR
notes: chimeric
In the experiment with hGUCY2C ECD-His [1], B10 registered a Kd of 4.49 nM, a dissociation rate constant (koff) of 0.000228 s⁻¹ and a kon of 50800 M⁻¹ s⁻¹. Further, the “EC50 (read off the curve)” value in experiment [9] is approximately 2 nM.
